Test results published in article PMC10449631 (Nature Chemical Biology, 2023).
“And” between values parts separate entries of the source, which are not always exact repeats. Identical values can stand only once. No end group written: not given here.

Experiments:
[1] = biological target: T1, PaAP (Pseudomonas aeruginosa, UniProt Q02PA2, A513L/Q514V/S515P); experiment: Peptide digestion assay (overnight and time course, LC-MS/MALDI); assay type: biochemical; conditions: for substrate of / degraded by PaAP (words): incubated with PaAP overnight, LC–MS or MALDI; for P0 (parent peptide, LC–MS signal): 500 μM peptide, 1 μM PaAP_T
T1 construct: PaAP (WT, residues 27–536); His6 (TEV cleavable) (N, cleaved yes); made in house; host or cells: E. coli SHuffle T7
T1 sequence (Q02PA2 37-516 A513L/Q514V/S515P): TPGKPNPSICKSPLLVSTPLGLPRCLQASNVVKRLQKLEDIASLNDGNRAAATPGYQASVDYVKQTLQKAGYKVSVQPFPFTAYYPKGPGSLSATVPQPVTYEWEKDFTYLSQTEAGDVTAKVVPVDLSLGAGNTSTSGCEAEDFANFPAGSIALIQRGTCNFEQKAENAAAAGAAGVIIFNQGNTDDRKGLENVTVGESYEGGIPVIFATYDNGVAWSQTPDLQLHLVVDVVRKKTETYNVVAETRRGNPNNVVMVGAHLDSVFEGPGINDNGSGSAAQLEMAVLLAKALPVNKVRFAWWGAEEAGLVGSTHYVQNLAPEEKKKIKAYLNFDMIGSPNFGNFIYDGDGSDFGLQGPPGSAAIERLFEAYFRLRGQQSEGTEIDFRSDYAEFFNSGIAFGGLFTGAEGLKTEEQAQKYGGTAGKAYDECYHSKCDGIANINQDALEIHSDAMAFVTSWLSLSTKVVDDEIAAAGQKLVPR
Experimental: A variety of peptides of varying lengths and compositions were incubated with PaAP at room temperature. Assays were performed by incubating (overnight at room temperature) 500 μM of substrate (peptides) with 1 μM enzyme (PaAP) in reaction buffer (50 mM Tris, pH 8.5, 100 mM NaCl). The reactions were quenched by heating to 100 °C for 10 min followed by centrifugation at 17,000g in a benchtop centrifuge to remove precipitate. Supernatant was collected and samples were analyzed by LC–MS. Initial trial assays were carried out in the presence and absence (control) of enzyme to determine if the substrate was degraded (single or triplicate experiments). Time-course assays were performed on selected peptide substrates in triplicate. A 300 μl reaction (including 500 μM of substrate) was initiated by the addition of 1 μM enzyme. The reaction was incubated at room temperature. The reaction was quenched at set timepoints by the removal of 30 μl aliquots, which were immediately heated to 100 °C for 10 min. The samples were analyzed by LC–MS using a Xevo Q-ToF (Waters) as described below, searching for masses of all peptide breakdown products.
Peptide degradation time courses were fitted to exponential equations as follows:
P0 peptide consumption was fitted to a single exponential equation (equation (2)) with the format2 yt=y0−Plateaue^−kt+Plateau
Time courses for the formation and decay of peptide intermediates were fitted to double exponential equations (equation (3)) and single exponential equations, followed by a linear phase (4)3 yt=y0−Plateau1e^−k1t+y0−Plateau2e^−k2t+Plateau 4 yt=y0−Plateaue^−kt+vt+Plateau where y(t) is the product formed at time t, y0 − Plateau is the amplitude of the exponential phase, k is the observed rate constant for the exponential phase, y0 is the value of y at time 0, Plateau is the value of y after exponential phase, C is the offset and v is the slope of the linear phase.
Peptide samples incubated in the presence and absence of PaAP were initially analyzed by MALDI. The peptide sample (0.5 µl at 10 µM) was spotted along with matrix (0.5 µl 10 mg ml^−1 α-cyano-4-hydroxycinnamic acid in ACN/0.1% TFA (50/50, vol/vol)) on a stainless steel MALDI plate and left to dry. The sample plate was loaded into a Sciex 4800 MALDI mass spectrometer. The laser voltage was adjusted to give a good signal to noise strength, and 50 shots were acquired in a random pattern across the spot and spectra combined. The spectra were externally calibrated with Sciex Pepcal mix (range: 500–4,000 m/z).

[2] = biological target: T2, PaAP_T (P. aeruginosa aminopeptidase, C-terminal truncated) (Pseudomonas aeruginosa, UniProt Q02PA2); experiment: Inhibition of PaAP_T in the Leu-pNA aminopeptidase assay (KI, IC50); assay type: biochemical; conditions: for IC50 plot data (PaAP_T activity at given peptide concentration): (S) = 2 mM, PaAP 100 nM
T2 construct: PaAP (WT, residues 27–536); His6 (TEV cleavable) (N, cleaved yes); made in house; host or cells: E. coli SHuffle T7
T2 sequence (Q02PA2 whole entry, looked up): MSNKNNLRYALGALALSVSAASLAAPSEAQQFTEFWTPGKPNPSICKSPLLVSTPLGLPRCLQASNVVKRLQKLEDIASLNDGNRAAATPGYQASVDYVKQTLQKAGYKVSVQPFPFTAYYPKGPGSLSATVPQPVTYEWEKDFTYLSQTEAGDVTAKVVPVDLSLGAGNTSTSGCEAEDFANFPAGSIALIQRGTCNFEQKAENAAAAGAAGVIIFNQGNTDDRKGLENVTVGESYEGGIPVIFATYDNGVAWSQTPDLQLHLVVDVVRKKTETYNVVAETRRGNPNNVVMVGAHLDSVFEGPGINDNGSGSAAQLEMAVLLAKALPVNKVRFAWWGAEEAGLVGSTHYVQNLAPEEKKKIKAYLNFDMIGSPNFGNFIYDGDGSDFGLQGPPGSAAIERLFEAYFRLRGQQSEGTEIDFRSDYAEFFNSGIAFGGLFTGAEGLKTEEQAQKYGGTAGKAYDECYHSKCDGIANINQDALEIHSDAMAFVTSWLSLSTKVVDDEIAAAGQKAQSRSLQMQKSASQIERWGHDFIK
Experimental: Aminopeptidase activity was determined spectrophotometrically primarily using amino Leu-pNA. Other commercially available pNA substrates (isoleucine, methionine, alanine, valine, proline, arginine, lysine and phenylalanine) were also assayed. Leu-pNA was incubated with enzyme (100 nM) in assay buffer (50 mM Tris, pH 8.5, 200 mM NaCl) at 25 °C. A pNA release caused an absorbance increase at 405 nm, monitored using a BMG Labtech plate reader. […] Data were plotted in GraphPad Prism (version 9) and the Michalis Menten equation was used for fitting.
Inhibition assays were carried out with the following peptides: linear-ERWGHDFIK (PaAP C-terminal residues), cyclic-ERWGHDFIK, N-acetylated and C-amidated ERWGHDFIK. IC50 values were determined by varying peptide concentration at a fixed substrate concentration (fixed at KM, (S) = 2 mM, PaAP concentration was 100 nM). […] KI values were determined by fitting the data to equation (1) (Morrison’s equation):1 v=1−Et+I+KI−Et+I+KI^2−4EtIKI/2Et where v is the velocity, Et is the total enzyme concentration, I is the concentration of inhibitor and KI is the equilibrium dissociation constant for the inhibitor. IC50 values increased when measured at increasing S, consistent with competitive inhibition.

Substance | substrate of / degraded by PaAP (words) [1] | IC50 plot data (PaAP_T activity at given peptide concentration) ([2]; log(I) 0) | IC50 plot data (PaAP_T activity at given peptide concentration) ([2]; log(I) 0.39794) | IC50 plot data (PaAP_T activity at given peptide concentration) ([2]; log(I) 0.69897) | IC50 plot data (PaAP_T activity at given peptide concentration) ([2]; log(I) 1) | IC50 plot data (PaAP_T activity at given peptide concentration) ([2]; log(I) 1.39794) | IC50 plot data (PaAP_T activity at given peptide concentration) ([2]; log(I) 1.69897) | IC50 plot data (PaAP_T activity at given peptide concentration) ([2]; log(I) 2) | IC50 plot data (PaAP_T activity at given peptide concentration) ([2]; log(I) 2.39794) | IC50 plot data (PaAP_T activity at given peptide concentration) ([2]; log(I) -0.30103) | IC50 plot data (PaAP_T activity at given peptide concentration) ([2]; log(I) -0.60206) | IC50 plot data (PaAP_T activity at given peptide concentration) ([2]; log(I) -1) | IC50 plot data (PaAP_T activity at given peptide concentration) ([2]; log(I) -1.30103) | other results
Ac-ERWGHDFIK: N-terminally acetylated ERWGHDFIK | is not a substrate | 14.1847 and 14.0241 and 15.9398 | 10.4257 and 10.2008 and 11.7831 | 7.759 and 8.43 and 9.606 | 6.157 and 6.578 and 7.803 | 4.438 and 4.522 and 4.703 | 3.468 and 3.7992 and 3.497 | 2.457 and 2.349 and 2.539 | 1.727 and 1.944 and 1.78 | 21.8755 and 21.5663 and 25.7068 | 31.9277 and 31.253 and 35.5141 | 57.8715 and 59.5181 and 63.1727 | 96.8273 and 103.173 | IC50 relative to unmodified linear ERWGHDFIK ([2]; Leu-pNA assay): stronger inhibitor (lower IC50)
ERLGHDFIK [… peptide with W replaced by L] | – | – | – | – | – | – | – | – | – | – | – | – | – | P0 (parent peptide, LC–MS signal) ([1]; time 0 minutes): 242839 and 266621 and 225820; P0 (parent peptide, LC–MS signal) ([1]; time 5 minutes): 120859 and 126339 and 82871.9; P0 (parent peptide, LC–MS signal) ([1]; time 10 minutes): 45005.2 and 53825.2 and 41072.7; P0 (parent peptide, LC–MS signal) ([1]; time 30 minutes): 28627.8 and 28689.7 and 21100.6; P0 (parent peptide, LC–MS signal) ([1]; time 60 minutes): 29596.5 and 28748.7 and 27907.5; P0 (parent peptide, LC–MS signal) ([1]; time 90 minutes): 29084.8 and 28644.1 and 25592.5; P0 (parent peptide, LC–MS signal) ([1]; time 120 minutes): 30548.5 and 27618.8 and 28168.1; P0 (parent peptide, LC–MS signal) ([1]; time 180 minutes): 31516.5 and 29951.1 and 28383.1; P0 (parent peptide, LC–MS signal) ([1]; time 1220 minutes): 25934 and 29596.2 and 25678.6; relative rate of degradation by PaAP ([1]; time-course assay, LC–MS): degraded at a faster rate than ERWGHDFIK
ERWGHDFIK (head-to-tail): ERWGHDFIK peptide cyclized head-to-tail (head-to-tail cyclized) | – | 101.617 and 102.323 and 98.6769 | 100.735 and 102.44 and 95.9718 | 96.6774 and 96.207 and 104.322 | 101.558 and 102.323 and 97.1479 | 95.7365 and 95.8542 and 103.44 | 85.1514 and 85.6807 and 79.6236 | 68.1564 and 67.5684 and 61.9818 | 37.6478 and 35.5307 and 32.0024 | 93.6783 and 96.7951 and 93.6195 | 99.853 and 100.676 and 98.5004 | 98.7357 and 97.5007 and 102.499 | 86.6216 and 85.5631 and 74.2723 | inhibition of PaAP_T ([2]; Leu-pNA assay): very poor inhibitors
RYLGYL: casein-derived peptide (UniProt P02662 105-110, looked up, fragment) [reference compound] | capable of processing | – | – | – | – | – | – | – | – | – | – | – | – | –
